The record followed here is PMC314469, “Protein Interaction Networks by Proteome Peptide Scanning” (PLoS Biology, 2004).

Common to all, as to test: SPOT array
For assay [1], the target named is T1, Rvs167 SH3 (RV167_YEAST), P39743.
T1 chain: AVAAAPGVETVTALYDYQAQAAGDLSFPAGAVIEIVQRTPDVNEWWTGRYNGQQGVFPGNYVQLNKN

In assay [2] the target is T2, Boi1 SH3 (BOI1_YEAST), P38041.
T2 chain: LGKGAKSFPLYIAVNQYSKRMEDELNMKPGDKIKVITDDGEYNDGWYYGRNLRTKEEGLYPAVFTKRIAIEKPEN

Assay [3] has as its target T3, Boi2 SH3 (BOI2_YEAST), P39969.
T3 chain: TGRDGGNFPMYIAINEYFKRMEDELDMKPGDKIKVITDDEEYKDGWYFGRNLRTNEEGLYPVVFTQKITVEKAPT

In assay [4] the target is T4, Yhr016c SH3 (YSC84_YEAST), P32793.
T4 chain: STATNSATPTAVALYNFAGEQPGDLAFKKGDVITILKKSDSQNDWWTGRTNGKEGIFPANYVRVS

Assay [5] addresses T5, Yfr024 SH3 (LSB3_YEAST), P43603.
T5 chain: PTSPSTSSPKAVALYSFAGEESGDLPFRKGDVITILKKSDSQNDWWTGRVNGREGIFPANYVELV

B1: YFL007W 51-64 (peptide)
chain: DGRPHSPLRARSAT
Consider B1, for which the normalised SPOT signal, Boehringer light units (BLU); mean over the file's lines of this peptide in assay [1] was determined as 75.7; in assay [2], 1690; in assay [3] it was 21.9; in assay [4] it was 193; in assay [5] it was 1500.

B2: YLR318W 152-165 (peptide)
chain: SNEPHLPPKWVQRS
On to B2, for which the normalised SPOT signal, Boehringer light units (BLU); mean over the file's lines of this peptide in assay [1] was determined as 4.1; in assay [2], 120; in assay [3], 9.7; in assay [4], 84; in assay [5], 2740.

B3: YJL194W 18-31 (peptide)
chain: DDAPATPPRPLKRK
Regarding B3, the normalised SPOT signal, Boehringer light units (BLU); mean over the file's lines of this peptide turned out to be 4430 in assay [1]; 242 in assay [2]; 101 in assay [3]; 13400 in assay [4]; 26500 in assay [5].

B4: YOL033W 38-51 (peptide)
chain: DIHPSLPVRTRFAP
Take B4: the normalised SPOT signal, Boehringer light units (BLU); mean over the file's lines of this peptide in assay [1] worked out at 943; in assay [2] it was 6780; in assay [3], 30.2; in assay [4], 5090; in assay [5], 24600.

B5: YIL067C 85-98 (peptide)
chain: DEPPSFPKRWGWLK
As to B5, the normalised SPOT signal, Boehringer light units (BLU); mean over the file's lines of this peptide stood at 62.6 in assay [1]; 77.3 in assay [2]; 112 in assay [3]; 2420 in assay [4]; 9640 in assay [5].

B6: YER152C 237-250 (peptide)
chain: DELPSPPLRMVHID
Turning to B6, the normalised SPOT signal, Boehringer light units (BLU); mean over the file's lines of this peptide was 124 in assay [1]; 128 in assay [2]; 28.3 in assay [3]; 6740 in assay [4]; 7450 in assay [5].

B7: YCR095C 250-263 (peptide)
chain: SREPEVPQRLLTLI
B7: the normalised SPOT signal, Boehringer light units (BLU); mean over the file's lines of this peptide was determined as 42.9 in assay [1]; 60 in assay [2]; 67.2 in assay [3]; 176 in assay [4]; 1140 in assay [5].

B8: YPL202C 314-327 (peptide)
chain: SILPSTPTRPLSQS
For B8, the normalised SPOT signal, Boehringer light units (BLU); mean over the file's lines of this peptide stood at 196 in assay [1]; 44.6 in assay [2]; 19.1 in assay [3]; 20300 in assay [4]; 20300 in assay [5].

B9: YMR125W 18-31 (peptide)
chain: DFRPRMPKRQRIPP
B9: the normalised SPOT signal, Boehringer light units (BLU); mean over the file's lines of this peptide in assay [1] was found to be 87.3; in assay [2] it was 776; in assay [3], 96.7; in assay [4] it was 211; in assay [5] it was 835.

B10: YGL165C 149-162 (peptide)
chain: DERPFRPKRTSRSA
Regarding B10, the normalised SPOT signal, Boehringer light units (BLU); mean over the file's lines of this peptide in assay [1] amounted to 111; in assay [2] it was 632; in assay [3] it was 169; in assay [4] it was 992; in assay [5], 7440.

B11: YBL042C 90-103 (peptide)
chain: DHKPENPIRTFKDL
For B11, the normalised SPOT signal, Boehringer light units (BLU); mean over the file's lines of this peptide in assay [1] worked out at 120; in assay [2] it was 167; in assay [3] it was 122; in assay [4], 175; in assay [5] it was 238.

B12: YDR403W 216-229 (peptide)
chain: SILPAFPSKSSNEQ
B12: the normalised SPOT signal, Boehringer light units (BLU); mean over the file's lines of this peptide came out at 68.1 in assay [1]; 131 in assay [2]; 25.1 in assay [3]; 108 in assay [4]; 441 in assay [5].

B13: YGR130C 350-363 (peptide)
chain: DESPIDPSKAPKVP
For the molecule B13, the normalised SPOT signal, Boehringer light units (BLU); mean over the file's lines of this peptide in assay [1] was 0; in assay [2] it was 110; in assay [3], 11.7; in assay [4], 120; in assay [5], 0.

B14: YBR202W 629-642 (peptide)
chain: DFTPVEPSKMREYI
Regarding B14, the normalised SPOT signal, Boehringer light units (BLU); mean over the file's lines of this peptide in assay [1] was determined as 277; in assay [2], 64.2; in assay [3], 59.7; in assay [4], 179; in assay [5], 15.3.

B15: YKR054C 2535-2548 (peptide)
chain: SNPPTDPGRIPMSE
Regarding B15, the normalised SPOT signal, Boehringer light units (BLU); mean over the file's lines of this peptide in assay [1] is 40.5; in assay [2] it was 23.4; in assay [3], 56.4; in assay [4], 259; in assay [5] it was 22.9.

B16: YLR330W 177-190 (peptide)
chain: SLGPLDPLKEISDL
On to B16, for which the normalised SPOT signal, Boehringer light units (BLU); mean over the file's lines of this peptide in assay [1] was 8.3; in assay [2], 103; in assay [3], 42.4; in assay [4], 206; in assay [5] it was 13.6.

B17: YPR060C 81-94 (peptide)
chain: DETPFFPDKIQKSF
With B17, the normalised SPOT signal, Boehringer light units (BLU); mean over the file's lines of this peptide was found to be 23.6 in assay [1]; 37.6 in assay [2]; 16.5 in assay [3]; 0 in assay [4]; 164 in assay [5].

B18: YBL034C 1313-1326 (peptide)
chain: DDTPSIPSKISSKS
Consider B18, for which the normalised SPOT signal, Boehringer light units (BLU); mean over the file's lines of this peptide was found to be 247 in assay [1]; 63.8 in assay [2]; 115 in assay [3]; 188 in assay [4]; 124 in assay [5].

B19: YER025W 174-187 (peptide)
chain: SQRPGSPGRYKLVR
For the molecule B19, the normalised SPOT signal, Boehringer light units (BLU); mean over the file's lines of this peptide in assay [1] is 94; in assay [2] it was 123; in assay [3] it was 51.1; in assay [4], 202; in assay [5], 634.
